Data taken from publication doi:10.1101/2022.02.25.481886.

Molecular target: RFP-VAP27-1 (Arabidopsis) (UniProt Q8VZ95)
Assay: FRET or BRET

Sequence of UniProt Q8VZ95 (Q8VZ95 whole entry): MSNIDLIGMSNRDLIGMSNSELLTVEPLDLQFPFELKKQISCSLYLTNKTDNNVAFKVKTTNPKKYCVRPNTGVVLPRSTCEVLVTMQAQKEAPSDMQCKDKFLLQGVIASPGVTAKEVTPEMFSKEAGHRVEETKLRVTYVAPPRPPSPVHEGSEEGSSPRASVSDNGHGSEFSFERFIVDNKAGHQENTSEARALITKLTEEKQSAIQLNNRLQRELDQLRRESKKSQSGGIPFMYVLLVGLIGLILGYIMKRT

GFP-TraB1b (natural protein) gave a fluorescence lifetime of the GFP donor with the RFP acceptor of 2.21 ns.
